The results in this text go back to patent publication US20080003218A1 (Genentech, published 2008).

The target of experiment [1] is membrane IgE on U266B1 cells (human, UniProt P01854 1-546). Put plainly: FACS on membrane IgE+ U266B1 cells.
For experiment [2], the target named is T1, human IgE (human, UniProt P01854 1-546). Put plainly: soluble receptor assay, biotin-IgE binding to coated FcεRI α-chain IgG chimera.
Experiment [3] concerns the target T1, human IgE. Described as above. The source holds these as a separate data set.
In experiment [4] the target is T1, human IgE. Put plainly: equilibrium binding (Scatchard), 125I-IgE.
In experiment [5] the target is IgE bound to FcεRI on human peripheral blood basophils (human, UniProt P01854 1-546; P12319 26-257). Put plainly: cell-based or functional assay.
Chain of IgE bound to FcεRI on human peripheral blood basophils (P01854 whole entry, chain 1 of 2): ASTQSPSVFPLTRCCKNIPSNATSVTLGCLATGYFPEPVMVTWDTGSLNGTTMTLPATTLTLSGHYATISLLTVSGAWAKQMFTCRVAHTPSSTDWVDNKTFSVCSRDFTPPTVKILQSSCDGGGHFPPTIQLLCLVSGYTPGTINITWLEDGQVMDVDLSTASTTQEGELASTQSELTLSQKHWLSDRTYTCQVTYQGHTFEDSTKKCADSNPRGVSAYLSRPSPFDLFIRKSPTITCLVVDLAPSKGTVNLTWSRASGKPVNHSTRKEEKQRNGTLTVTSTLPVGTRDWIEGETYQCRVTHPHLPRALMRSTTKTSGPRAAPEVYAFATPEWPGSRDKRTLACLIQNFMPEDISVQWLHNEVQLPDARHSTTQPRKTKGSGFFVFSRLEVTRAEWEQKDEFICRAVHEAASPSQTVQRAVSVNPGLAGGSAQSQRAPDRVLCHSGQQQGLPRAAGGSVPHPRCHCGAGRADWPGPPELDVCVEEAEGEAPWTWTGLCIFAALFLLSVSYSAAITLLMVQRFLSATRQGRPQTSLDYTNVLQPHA
Chain of IgE bound to FcεRI on human peripheral blood basophils (P12319 26-257, chain 2 of 2): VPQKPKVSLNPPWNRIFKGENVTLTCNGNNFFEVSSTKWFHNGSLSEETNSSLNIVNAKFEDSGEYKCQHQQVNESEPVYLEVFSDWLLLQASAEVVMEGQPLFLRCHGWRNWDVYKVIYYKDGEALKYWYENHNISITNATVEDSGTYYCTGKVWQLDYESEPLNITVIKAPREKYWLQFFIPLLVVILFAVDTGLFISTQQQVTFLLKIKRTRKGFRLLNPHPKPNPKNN

Like-named read-outs stand apart in the source and are kept apart here.

T1 sequence (P01854 whole entry): as the sequence (P01854 whole entry, chain 1 of 2) above
Chain of membrane IgE on U266B1 cells (P01854 whole entry, one chain of several): as the sequence (P01854 whole entry, chain 1 of 2) above

B1: murine anti-human IgE monoclonal antibody MaE11 (antibody, V domains shown)
VH: DVQLQESGPGLVKPSQSLSLACSVTGYSITSGYSWNWIRQFPGNKLEWMGSITYDGSSNYNPSLKNRISVTRDTSQNQFFLKLNSATAEDTATYYCARGSHYFGHWHFAVWGAGTTVTVSS
VL: DIQLTQSPASLAVSLGQRATISCKASQSVDYDGDSYMNWYQQKPGQPPILLIYAASYLGSEIPARFSGSGSGTDFTLNIHPVEEEDAATFYCQQSHEDPYTFGAGTKLEIK
notes: Murine IgG1; immunogen U266 IgE; also called murine mAb MaE11
B1 gave an EC50 in experiment [1] of 0.15 µg/mL. In the experiment with human IgE [2], the concentration for half-maximal inhibition (IC50) amounted to 0.179 µg/mL, the “ratio F(ab)-X/F(ab)-2” value is 0.03 ratio and the “ratio F(ab)-X/MaE11” value was 1 ratio. In the experiment with human IgE [3], the IC50 was 0.449 µg/mL, the “ratio Variant X/IgG1-2” value amounted to 0.06 ratio and the “ratio Variant X/MaE11” value worked out at 1 ratio. For the same molecule, in the experiment with human IgE [4], the affinity, expressed as Kd, was 30 nM. The “PBL histamine release (EC50)” value in experiment [5] is over 100 µg/mL.

The term EC50 denotes the concentration at which the effect is half-maximal. A high value points to weaker potency. Usually IC50 stands for the concentration that gives 50% inhibition. A low value points to higher potency. Usually Kd stands for the concentration at which binding is half-saturated. A lower Kd goes with a tighter complex.
